Assay results taken from US20260347449 (published 2026).
Residue numbers refer to the chain shown, from its start. Where two headings read alike, the source gives them in different places. Values belong to the binder of their own block, whether it stands above or below them.

Assays:
[1] = target: T1, human C3 (human, UniProt P01024); assay: BLI
[2] = target: T1, human C3; assay: BLI; remark: listed apart in the source
[3] = target: T2, cynomolgus C5 (cynomolgus); assay: BLI
T2 chain: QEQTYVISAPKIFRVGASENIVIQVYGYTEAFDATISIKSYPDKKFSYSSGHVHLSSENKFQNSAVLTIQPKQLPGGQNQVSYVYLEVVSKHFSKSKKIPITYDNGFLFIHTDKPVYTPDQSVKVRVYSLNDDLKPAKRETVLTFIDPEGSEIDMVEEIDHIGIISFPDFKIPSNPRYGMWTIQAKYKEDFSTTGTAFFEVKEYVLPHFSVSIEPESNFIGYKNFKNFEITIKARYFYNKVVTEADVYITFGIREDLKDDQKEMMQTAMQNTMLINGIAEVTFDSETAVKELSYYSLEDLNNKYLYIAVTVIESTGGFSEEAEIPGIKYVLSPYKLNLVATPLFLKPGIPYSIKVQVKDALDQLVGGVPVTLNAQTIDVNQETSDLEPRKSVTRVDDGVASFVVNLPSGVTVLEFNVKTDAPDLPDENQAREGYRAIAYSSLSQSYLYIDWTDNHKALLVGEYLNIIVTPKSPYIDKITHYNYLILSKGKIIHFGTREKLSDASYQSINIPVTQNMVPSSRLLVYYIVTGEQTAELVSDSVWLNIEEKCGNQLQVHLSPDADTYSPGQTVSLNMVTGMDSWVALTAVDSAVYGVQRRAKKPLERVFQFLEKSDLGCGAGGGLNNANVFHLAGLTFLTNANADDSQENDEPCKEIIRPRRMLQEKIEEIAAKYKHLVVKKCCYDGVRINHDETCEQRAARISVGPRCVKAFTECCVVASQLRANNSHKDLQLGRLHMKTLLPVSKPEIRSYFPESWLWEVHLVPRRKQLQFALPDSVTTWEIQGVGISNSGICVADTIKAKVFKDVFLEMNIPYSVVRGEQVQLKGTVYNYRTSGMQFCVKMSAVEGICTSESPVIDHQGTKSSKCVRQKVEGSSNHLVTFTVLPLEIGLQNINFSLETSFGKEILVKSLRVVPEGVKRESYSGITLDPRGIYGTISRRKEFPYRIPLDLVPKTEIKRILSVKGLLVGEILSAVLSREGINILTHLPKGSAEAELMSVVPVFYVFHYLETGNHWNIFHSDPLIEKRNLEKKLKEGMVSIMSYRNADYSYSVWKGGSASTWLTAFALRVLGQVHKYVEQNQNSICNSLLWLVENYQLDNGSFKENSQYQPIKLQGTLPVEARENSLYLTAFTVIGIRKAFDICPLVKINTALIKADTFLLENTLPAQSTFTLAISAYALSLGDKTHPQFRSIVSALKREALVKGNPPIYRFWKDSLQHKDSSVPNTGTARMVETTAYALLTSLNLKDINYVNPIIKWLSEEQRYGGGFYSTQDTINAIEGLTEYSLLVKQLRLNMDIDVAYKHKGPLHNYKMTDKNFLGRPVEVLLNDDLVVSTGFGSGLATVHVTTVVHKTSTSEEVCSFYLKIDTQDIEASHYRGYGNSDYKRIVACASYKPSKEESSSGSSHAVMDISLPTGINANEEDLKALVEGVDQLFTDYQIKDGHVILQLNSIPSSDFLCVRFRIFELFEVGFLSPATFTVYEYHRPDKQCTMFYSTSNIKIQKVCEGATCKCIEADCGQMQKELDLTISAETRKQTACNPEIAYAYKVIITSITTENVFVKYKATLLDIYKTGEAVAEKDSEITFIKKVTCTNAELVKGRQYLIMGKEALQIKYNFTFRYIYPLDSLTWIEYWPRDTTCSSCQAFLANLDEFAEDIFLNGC

[4] = target: T3, human C5 (human, UniProt P01031); assay: BLI
[5] = target: T3, human C5; assay: BLI; remark: listed apart in the source
[6] = target: T3, human C5; assay: ELISA
[7] = target: T1, human C3; assay: BLI; remark: listed apart in the source
[8] = target: T3, human C5; assay: BLI; remark: listed apart in the source
[9] = target: T1, human C3; assay: BLI; remark: listed apart in the source
[10] = target: T1, human C3; assay: BLI, bivalent
[11] = target: human C5 W917S (human, UniProt P01031); assay: BLI
[12] = target: T1, human C3; assay: ELISA

B1: C3I4 (antibody, V domains shown)
VH: DVQLVESGGGLVQPGGSLRLSCATSGFTLDYYAIGWFRQAPGKEREGVSCITGPDGSTHYADSVKGRFTISRDNAKNTVYLQMNSLKPEDTAVYYCAATAGLYGCGYGMDHWGKGTQVTVSS
Kd [1]: 27 nM

B4: C3I3 (antibody, V domains shown)
VH: DVQLVESGGGLVQPGGSLRLSCAASGFTLDNYAIAWFRQAPGKEREGVSCISSSRGSTAYEDSVKGRFTIARDNAKNTVYLQMNSLKPEDTAVYYCAARARGMCREFDYDYWGQGTQVTVSS
Kd [1]: 17 nM

B5: C5S5 (antibody, V domains shown)
VH: QVQLQESGGGLVQAGGSLRLSCAASGTISPYEGMGWYRQAPGKERELVAAIDGGGITYYADSVKGRFTISRDNAKNTVYLQMNSLKPEDTAVYYCAAGIWTLSYYDYWGQGTQVTVSS
Kd [4]: 13 nM

B6: C3N10.3 (antibody, V domains shown)
VH: EVQLVESGGGLVQAGGSLRLACAASGLTFSPYAMGWFRQAPGKEREFVAGIRWISGNPYYADSVKGRFTISRDNSKNTLYLQMNSLRPEDTAVYSCAAAPLTRSYDYWGQGTLVTVSS
Kd [7]: 5.32 nM | binding result [8]: no binding | Kd [9]: 5 nM | binding result [3]: no binding

B7: C3N10.3-Fc (antibody, V domains shown)
VH: B6 VH
Kd [10]: 3.25 nM

B8: C3N10 (antibody, V domains shown)
VH: B6 VH with E1D, S75A, L79V, R87K, L113Q
Kd [7]: 3.64 nM | binding result [8]: no binding | Kd [1]: 7.6 nM | binding result [3]: no binding

B9: C3S3.2 (antibody, V domains shown)
VH: EVQLVESGGGLVQAGGSLRLSCAASGTIFSRNYMGWYRQAPGKERELVAGIGYGSSTNYADSVKGRFTISRDNSKNTLYLQMNSLRPEDTAVYYCAAVPTYRPYYFYWGQGTLVTVSS
Kd [7]: 5.83 nM | binding result [8]: no binding | Kd [9]: 6 nM | binding result [3]: no binding

B10: C3S3.2-Fc (antibody, V domains shown)
VH: B9 VH
Kd [10]: 0.703 nM

B11: C3S3 (antibody, V domains shown)
VH: B9 VH with E1Q, V5Q, S74A, L78V, R86K, L113Q
Kd [7]: 4.97 nM | binding result [8]: no binding | Kd [1]: 23 nM | binding result [3]: no binding

B12: C3I8 (designed binder)
chain: DVQLVESGGGLVQPGGSLRLSCATSGFSFGVYDMSWVRQASGKGLEWVSGIDSGSNTAYADSVKVRFTISRDNAKNTLYLQMNNLKPEDTAVYYCALGRETDYIPVTDFRTQGTQVTVSS
Kd [1]: 4.8 nM

B15: C3S6 (antibody, V domains shown)
VH: QVQLQESGGGLVQAGGSLRLSCAASGNIFVGHGMGWYRQAPGKEREFVAAIGYGAITNYADSVKGRFTISRDNAKNTVYLQMNSLKPEDTAVYYCAASSYYPPRYWYWGQGTLVTVSS
Kd [1]: 20 nM

B16: C3S8 (antibody, V domains shown)
VH: QVQLQESGGGLVQAGGSLRLSCAASGTIFPTDRMGWYRQAPGKEREFVATIDLGGTTNYADSVKGRFTISRDNAKNTVYLQMNSLKPEDTAVYYCAAAWEGPSRYGRHRYYSHRYWGQGTQVTVSS
Kd [1]: 14 nM

B17: C5S1 (antibody, V domains shown)
VH: QVQLQESGGGLVQAGGSLRLSCAASGYISYDDDMGWYRQAPGKEREFVAAIDVGGSTYYADSVKGRFTISRDNAKNTVYLQMNSLKPEDTAVYYCAVRDGYYWDHDYWGQGTQVTVSS
Kd [4]: 9.5 nM

B19: C3I22 (antibody, V domains shown)
VH: DVQLVESGGGLVQPGGSLRLSCTASGFTFGVYAMSWVRQAPGKGLEWVSSIDSGVNTAYADSVKGRFTISRDNAINTVFLQMNSLKPEDTAVYHCALGRESDYEPVTGSWGQGTQVTVSS
Kd [1]: 3.9 nM

Results, then the binder that gave them:

binding result [2]: no binding | binding result [3]: no binding | Kd [4]: 1.98 nM | Kd [5]: 6.29 nM
B2: C5S2 (antibody, V domains shown)
VH: QVQLQESGGGLVQAGGSLRLSCAASGNIFHQSDMGWYRQAPGKEREFVAAIDYGTNTYYADSVKGRFTISRDNAKNTVYLQMNSLKPEDTAVYYCAARDTSYWDHVYWGQGTQVTVSS

binding result [6]: no binding
B3: C5S12 (antibody, V domains shown)
VH: QVQLQESGGGLVQAGGSLRLSCAASGYIFPSDDMGWYRQAPGKEREFVAAINDGASTYYADSVKGRFTISRDNAKNTVYLQMNSLKPEDTAVYYCAVQLNYYWDYVYWGQGTQVTVSS

Kd [4]: 7 nM
B13: C5S8 (antibody, V domains shown)
VH: QVQLQESGGGLVQAGGSLRLSCAASGNIFDEWDMGWYRQAPGKEREFVAAIDDGASTYYADSVKGRFTISRDNAKNTVYLQMNSLKPEDTAVYYCAARQTYAWDYRYWGQGTQVTVSS

binding result [11]: no binding
B14: eculizumab (antibody, V domains shown)
VH: QVQLVQSGAEVKKPGASVKVSCKASGYIFSNYWIQWVRQAPGQGLEWMGEILPGSGSTEYTENFKDRVTMTRDTSTSTVYMELSSLRSEDTAVYYCARYFFGSSPNWYFDVWGQGTLVTVSS
VL: DIQMTQSPSSLSASVGDRVTITCGASENIYGALNWYQQKPGKAPKLLIYGATNLADGVPSRFSGSGSGTDFTLTISSLQPEDFATYYCQNVLNTPLTFGQGTKVEIKR

binding result [12]: no binding
B18: C3S10 (antibody, V domains shown)
VH: QVQLQESGGGLVQAGGSLRLSCAASGYISGGSIMGWYRQAPGKEREFVAGINQGSNTYYADSVKGRFTISRDNAKNTVYLQMNSLKPEDTAVYYCAVGGRSYYYHHYWGQGTQVTVSS

binding result [12]: no binding
B20: C3S5 (antibody, V domains shown)
VH: QVQLQESGGGLVQAGGSLRLSCAASGTIFDDESMGWYRQAPGKEREFVASINYGSTTYYADSVKGRFTISRDNAKNTVYLQMNSLKPEDTAVYYCAVGWSTNYDWTLSYYYWGQGTLVTVSS
